From article PMC10949331, “Labile assembly of a tardigrade protein induces biostasis” (Protein Science : A Publication of the Protein Society, 2024)

Molecular target: the molecule itself
Test: cross-linking; 1 mg/mL of each protein with increasing BS3 amine ester crosslinker (0.8-8 mM), 30 min at room temperature; denaturing SDS-PAGE, Coomassie blue

B1: Cytoplasmic Abundant Heat Soluble protein D (CAHS D), wild type (natural protein, Hypsibius exemplaris, UniProt P0CU50 1-227, looked up)
chain: MSGRNVESHMERNEKVVVNNSGHADVKKQQQQVEHTEFTHTEVKAPLIHPAPPIISTGAAGLAEEIVGQGFTASAARISGGTAEIHLQPSAAMTEEARRDQERYRQEQESIAKQQEREMEKKTEAYRKTAEAEAEKIRKELEKQHARDVEFRKDLIESTIDRQKREVDLEAKMAKRELDREGQLAKEALERSRLATNVEVNFDSAAGHTVSGGTTVSTSDKMEIKRN
notes: CAHS D of the tardigrade Hypsibius exemplaris, 227 residues, UniProt P0CU50; Cloned into pET28b; also called CAHS8_HYPEX; CAHS 94063; source: E. coli BL21 (DE3), purified (heat lysis, cation exchange in 8 M urea, dialysis, lyophilised)
  binding result: binds
